B1: 7C6 antibody (antibody, V domains shown)
VH: QVQLQQPGAELVKPGASVKLSCKASGYTFTTYYMYWVKQRPGQGLEWIGEINPSNGGTNFNEKFKSKATLTVDKSSSTAYMQLSSLTSEDSAVYYCTTFAYWGQGTLVTVSA
VL: DIVMTQSPSSLSASLGGKVTITCKASQDINKYIVWYQHKPGKGPRLLIHYTSILQPGIPSRFSGSGSGRDYSFSISNLEPEDIATYYCLQYDNLWTFGGGTKLEIK
notes: Mouse hybridoma monoclonal antibody, detected with anti-mouse IgG
B2: 8B2 antibody (antibody, V domains shown)
VH: QVQLQQPGAELVKPGASVKMSCKASGYTFTSYNMHWVKQTPGQGLEWIGAIYPGNGYTSYNQKFKGKATLTADKSSSTAYMQLSSLTSEDSAVYYCARGGGPFAYWGQGTLVTVSA
VL: DIVMTQSHKFMSTSVGDRVSITCKASQDVGTAVAWYQQKPGQSPKLLIYWPSTRHTGVPDRFTGSGSGTDFTLTISNVQSEDLADYFCQQYSSYPFTFGSGTKLEIK
notes: as for B1
B3: 10E9 antibody (antibody, V domains shown)
VH: EVQLEESGTVLARPGASVKMSCKASGYTFTSYWMHWIKQRPGQGLEWIGAIYPGNSDTSYNQKFKGKAKLTAVTSTSTAYMELSSLTNEDSAVYYCTRGEYDYVLAYWGQGTLVTVSA
VL: DIVMTQSPATLSVTPGDSVSLSCRASQSISNNLHWYQQKSHESPRLLIKFASQSISGIPSRFSGSGSGTDFTLSINSVETEDFGMYFCQQSNSWPHMYTFGGGTKLEIK
notes: Mouse hybridoma monoclonal antibody, detected with anti-mouse IgG; Used as hybridoma culture supernatant in the ELISA
B4: 7B9 antibody (antibody, V domains shown)
VH: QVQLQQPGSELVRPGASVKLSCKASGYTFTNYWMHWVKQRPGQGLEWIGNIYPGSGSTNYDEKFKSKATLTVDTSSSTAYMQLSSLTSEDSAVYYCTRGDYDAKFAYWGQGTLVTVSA
VL: DIVMTQSPAIMSASPGEKVTMTCRASSSVSSSYLHWYQQKSGASPKLWIYSTSKLASGVPARFSGSGSGTSYSLTISSVEAEDAATYYCQQYSGYPLITFGAGTKVELK
notes: as for B1
B5: 5E11 antibody (antibody, V domains shown)
VH: QVQLKQSGAELMKPGASVKISCKATGYTFSRYWIEWVKQRPGHGLEWIGEILPGSGSTSYNEKFKGKATFTADTSSNTAYMQLSSLTSEDSAVYYCARSARATYYFDYWGQGTTLTVSS
VL: DIQMTQTTSSLSASLGDRVTISCWASQDISNYLNWYQQKPDGTVKLLIYYTSTLHSGVPSRFSGSGSGTDYSLTISNLEQEDIATYFCQQGNALPYTFGGGTKLEIK
notes: as for B1
B6: 1A8 antibody (antibody, V domains shown)
VH: QVQLQQPGSELVRPGASVKLSCKASGYTFTSYWMHWVKQRHGQGLEWIGNIYPGSGSTNYDEKFKSKGTLTVDTSSRTAYMHLSSLTSEDSAVYYCTRGHYDYAMDYWGQGTSVTVSS
VL: DIVMTQSPSSLSASLGDTITITCHASQNINVWLSWYQQKPGNIPKLLIYKTSNLHTGVPSRFSGSGSGTGFTLTISSLQPEDIATYYCQQGQSYPWTFGGGTKLEIK
notes: as for B1

target: T1, GPC3 expressed on hepatoma cell line HepG2 (human, UniProt P51654 25-554); assay: flow cytometry on HepG2 cells, 1 µg antibody, PE anti-mouse IgG secondary; median fluorescence
T1 construct: whole, on cells; also called GPC3-expressing tumor cells (HepG2); cells expressing GPC3
T1 sequence (P51654 25-554 limits assumed): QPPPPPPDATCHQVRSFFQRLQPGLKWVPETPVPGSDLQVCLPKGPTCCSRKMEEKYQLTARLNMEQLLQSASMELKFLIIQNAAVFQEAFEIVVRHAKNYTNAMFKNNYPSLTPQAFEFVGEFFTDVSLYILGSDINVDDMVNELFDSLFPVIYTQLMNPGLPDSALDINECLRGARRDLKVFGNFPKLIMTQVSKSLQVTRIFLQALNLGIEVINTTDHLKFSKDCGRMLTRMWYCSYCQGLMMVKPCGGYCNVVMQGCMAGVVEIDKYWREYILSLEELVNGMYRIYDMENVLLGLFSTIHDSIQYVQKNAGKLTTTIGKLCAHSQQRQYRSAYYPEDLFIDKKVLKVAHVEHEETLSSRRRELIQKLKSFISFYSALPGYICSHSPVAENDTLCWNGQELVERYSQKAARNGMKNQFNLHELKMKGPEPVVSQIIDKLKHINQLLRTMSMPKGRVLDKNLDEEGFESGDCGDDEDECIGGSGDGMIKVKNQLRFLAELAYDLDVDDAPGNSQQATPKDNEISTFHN
Description: (§1) First, hepatoma cell line HepG2 expressing GPC3 was reacted with 1 μg of each of 10E9, 8B2, 7C6, 7B9, 5E11, and 1A8 antibodies for 30 minutes, and then, after staining the surface with a secondary antibody, it was measured by flow cytometry.
(§2) GPC3 antibody (Sino biology Glypican3 APC cat #100393-R024-A, 10 u.1) was used as a positive control, and PE-conjugated anti-mouse IgG antibody (PE-conjugated goat anti-mouse IgG; Biolegend Inc., cat #405307, USA, 5 μl) was used as a secondary antibody.

Binder	Median
B1	61800
B2	31400
B3	25200
B4	22000
B5	40200
B6	29000

target: T1, GPC3 expressed on hepatoma cell line …; assay: flow cytometry on HepG2 cells, 1 µg antibody, PE anti-mouse IgG secondary; mean fluorescence
Description: as §1, §2

Binder	Mean
B1	81400
B2	40000
B3	33000
B4	27300
B5	52600
B6	36600

target: T2, GPC3 protein (Acrobiosystems, cat #GP3-H52H4) (UniProt P51654 25-559); assay: ELISA, GPC3 protein coated at 100 ng/well, 100 µl hybridoma culture, anti-mIgG-HRP
T2 construct: Bought protein coated on the ELISA plate at 100 ng/well; also called Glypican 3; GPC3 antigen
T2 sequence (P51654 25-559 limits assumed): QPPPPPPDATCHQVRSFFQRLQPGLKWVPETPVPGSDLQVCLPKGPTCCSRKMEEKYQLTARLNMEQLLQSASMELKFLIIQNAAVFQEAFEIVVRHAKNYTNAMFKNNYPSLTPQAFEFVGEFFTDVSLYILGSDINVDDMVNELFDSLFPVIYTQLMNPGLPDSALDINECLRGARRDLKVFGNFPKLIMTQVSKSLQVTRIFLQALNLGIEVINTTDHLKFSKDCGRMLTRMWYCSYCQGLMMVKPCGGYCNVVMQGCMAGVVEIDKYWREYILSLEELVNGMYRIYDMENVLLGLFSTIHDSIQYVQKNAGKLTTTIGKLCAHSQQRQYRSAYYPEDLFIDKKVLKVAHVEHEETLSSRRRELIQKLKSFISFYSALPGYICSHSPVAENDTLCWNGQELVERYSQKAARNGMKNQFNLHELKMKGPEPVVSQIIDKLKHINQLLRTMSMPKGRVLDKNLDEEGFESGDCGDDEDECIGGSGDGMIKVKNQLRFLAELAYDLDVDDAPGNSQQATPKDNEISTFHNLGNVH
Description: First, in order to encode the GPC3 peptide, GPC3 protein (Acrobiosystems, cat #GP3-H52H4) was dispensed into a 96-well plate at an amount of […] and reacted overnight at 4° C. Then, after treatment with 1 X PBST containing 3% BSA, it was blocked for 30 minutes at room temperature.
100 μl of hybridoma cell culture of each clone producing 10E9, 8B2, 7C6, 7B9, 5E11 or 1A8 antibody was treated in each well, reacted at room temperature for 2 hours, and then washed three times with 1 X PBST. The secondary antibody ([…], 1:10,000) was treated and reacted at room temperature for 30 minutes, washed three times with 1 X PBST, and then treated with TMB for color development and reacted at room temperature for 5 minutes. Finally, the reaction was terminated by treatment with a stop solution of 1N H2SO 4, and then the absorbance was measured at 450 nm.

Binder	OD450 measurement
B1	2.88 OD450
B2	1.01 OD450
B3	2.32 OD450
B4	2.54 OD450
B5	0.942 OD450
B6	2.65 OD450

Source: US20240018262A1 (INNOBATION BIO, published 2024)
